Data taken from patent US11402384B2 (Duke University, priority 2015, dated 2022).
Residue numbers refer to the chain shown, from its start. Names and notes keep the numbering of the source. Where two headings read alike, the source gives them in different places. Marks after values point to notes of the source that are not given here.

B1: tnGBP4: glucose-binding protein from Thermotoga neapolitana, SEQ ID NO: 12 (protein)
chain: MLEIFSWWTAGGEAEALEALIKVFNKYYPDVEVINATVAGGAGTNAKAVLKTRILGGNPPDSFQVHAGMELIDTYVIPGYMTPITNLLEQWGVMDKFPKGILEMASYEGEIYSIPVNVHRGNVVFYNKKIAEEIGMNEPPKTWDEFIMYLQKAKEKGYVGLALGDKNKWTALHLFETILLGVLGPNDYNGLWKGEVSFNDPRIRRAFEIMNKLLDYVNEDHAALAWQDATRLVYEGKALANVMGDWAEGYLKSVGWEPGKDFGWFAVPETQNAFMVVSDTFGLPKNAPHKENAVKWLKVVASVEGQDAFNPIKGSIPARLDADRSKYDIYLQWSMEDFATKALTPSIAHGSAAPEGFVTTLNDIINRFVTTRDIDSALEELLMAAEDEGYLVEGGSHHHHHH
modifications: tnGBP4 (with signal peptide replaced with M and a GGSHHHHHH at C-terminus)
B2: koGBP5: glucose-binding protein from Kosmotoga olearia, SEQ ID NO: 13 (protein)
chain: MLEIFSWWTGGGEEEGLLALFDVFHKYYPDVEIINATVAGGAGTNAKAVLKTRMLGGNPPDSFQVHGGMELIDTYVVTGMMEPITDLLEEWGIIDKFPEDILKIASYKGEVYSIPVNVHRGNVVFYNKAILEEVGIEKVPSTWPEFIEVLKKIKKAGYIPLALGDKNKWTATHLFEDILLSTLGPYNYNGLWNGRTSFEHQGVKEALEIFKELMNYVNPNHASLTWQDATLLVFEGKAAFNVMGDWAEGYLKTLGWTPGKEFGWMVVPGTKGSFMVVTDTFGLPKNAPHRENAIKWLKIISSVEGQDTFNPIKGSIPARIDADRSLYDDYLIWSMDDFATNALCPSIIHGSAAPEAFVTALNDTINMFITRKDVKKALKEIIYAAEDYLEGGSHHHHHH
modifications: koGBP5 (with signal peptide replaced with M and a GGSHHHHHH at C-terminus)
B3: smGBP7: glucose-binding protein from Staphylothermus marinus, SEQ ID NO: 15 (protein)
chain: MELVIYHWWTAGGEREAINAVFQVFKQKYPNIQIVENPVAGGAGSVMKSVIIGLLAAGTPPDTFQVHAGAELKEYVDAGYLAPIDDIWSKLGLDKVIPSTLQVMAKFNGHYYAVPIDVHRSNVLWYNPKIFNELGIINKFGDPRNWSVDTLLQVARYIKQQRPDIAPIALASRNKWPVTHLFEVLLANAGGPETYVKFFTGKFNYNDPNDPVVQTVKKVLTVMATMAKEGLFNSNHPELTWDQAAALVAEGKAAMFIHGDWVAGYYIANNYKYGKDWAAAPFPKNIFILLSDAFELPKNAPHPEAAKDWLMVVGSKEAQEKFNLIKGSIPARTDVSPKYPDPYRPETAEDFQKSTLIPSAVHGGIAKEAFMTDLHNILTSMLTAVSVGTPVDNAVNTALAQILQSVKTSGLASFWKGYTIDYFITKRGGSHHHHHH
modifications: smGBP7 (with signal peptide replaced with M and a GGSHHHHHH at C-terminus)
B4: D278S B: tsGBP2.13C.D278S (SEQ ID NO: 51) Badan conjugate (conjugate)
chain: MKLEIFSWWAGDCGPALEALIRLYKQKYPGVEVINATVTGGAGVNAKAVLKTRMLGGDPPDTFQVHAGQELIGTWVVADRMEDLTSLFRQEGWLQAFPKGLIDLLSYKGGIWSVPVNIHRSNVMWYIPAKLKEWGVTPPKTWAEFLATAQTLKRKGLEAPLALGENWTQQHLWESVALATLGADGWNNLWSGKLKFTDPKAVAVWETFGKVLDAANKDAAGLSWQQAVDRVVQGKAAFNIMGDWAAGYMSTTLKLKPGTDFAWTPSPGTSGIFMMLSSSFGLPKGAKNRQNAINWLKLVGSKEGQDTFNPLKGSIAARLDSDPAKYNAYGQSAMKDWKSNRIVGSLVHGAVAPESFMSQFGTVMEIFLQSRNPQAAANAAQAIANQVGLGRGGSHHHHHH
modifications: Badan conjugate; tsGBP2.13C.D278S (13C, 278S double substitution mutant with signal peptide replaced with M and a GGSHHHHHH at C-terminus)
B5: K312M B: tsGBP2.13C.K312M (SEQ ID NO: 53) Badan conjugate (conjugate)
chain: B4 chain with S278D, K312M
modifications: Badan conjugate; tsGBP2.13C.K312M (13C, 312M double substitution mutant with signal peptide replaced with M and a GGSHHHHHH at C-terminus)
B6: D278L A: tsGBP2.13C.D278L (SEQ ID NO: 52) Acrylodan conjugate (conjugate)
chain: B4 chain with S278L
modifications: Acrylodan conjugate; tsGBP2.13C.D278L (13C, 278L double substitution mutant with signal peptide replaced with M and a GGSHHHHHH at C-terminus)
B7: D278L B: tsGBP2.13C.D278L (SEQ ID NO: 52) Badan conjugate (conjugate)
chain: B4 chain with S278L
modifications: Badan conjugate; tsGBP2.13C.D278L (13C, 278L double substitution mutant with signal peptide replaced with M and a GGSHHHHHH at C-terminus)
B8: bhGBP6: glucose-binding protein from Bacillus halodurans, SEQ ID NO: 14 (protein)
chain: MLEIFSWWTGAGEEDGLLALIELFEEKHPEIEVDNAAVAGGAGTNAKAVLTSRMQGNDPPGTFQVHGGAELNDSWVAAGQMDPLNDLFEAEGWADKFPEELIELVSKDGNIYSVPVNIHRGNVLWYNTEIFEEHGLEVPTTFEEFFDVADALQEAGVTPLALGDREPWAATHLFETVLLGTLGADDYNKLWSGEVGMDDPRVEEAAEIFIRMLDYVNEDHSSRNWQDASQLVAQGEAAMNVMGDWAKGYFVNDLNLAVKEDFGWAATPGTEGTFMVITDTFGLPTGVENPEVVKSFLAVLGSQEGQDAFNPLKGSIPARVDADVSKYDEYGQETIEDFKSAELSPSLAHGSAANEGFLTQVNQAINIFVTQKDVDSFVDSLKQYQPGGSHHHHHH
modifications: bhGBP6 (with signal peptide replaced with M and a GGSHHHHHH at C-terminus)

Columns and labels:
[1] = Method: Eight homologs that were predicted to be glucose-binding proteins (FIG. 4, Table 3) were selected to probe different degrees of sequence identity to the ttGBP1 seed, and their glucose-binding properties were determined experimentally. These experiments comprised four successive steps: • 1. Synthetic gene construction. The amino acid sequence of the homology leads were backtranslated into DNA sequences. These were optimized for directing heterologous cytoplasmic expression of the protein homologues in E. coli, using either the OrfOpt or OrfMorph programs. These programs predict mRNA sequences that direct high-level protein expression in E. coli. The predicted gene sequences were assembled de novo from synthetic oligonucleotides. • 2. Heterologous protein expression of the homologues in E. coli. Plasmids carrying the synthetic expression constructs (see above) were transformed into KRX competent cells (Promega). Protein production was induced in bacterial cultures of these cultures, as described in the Materials and Methods. • 3. Purification of successfully expressed protein using immobilized metal affinity chromatography. • 4. Verification of glucose binding. Determination of the glucose-binding properties of the purified proteins using a thermal stability shift assay.
Analysis of glucose-binding properties using thermal melts. The thermal stability of purified GBP candidate proteins was determined by measuring the temperature-dependence of the fluorescence signal of an extrinsically added dye, SYPRO, using a Roche LightCycler (Layton and Hellinga, 2010, Biochemistry, 49, 10831-41). The total fluorescence intensity, S, is given by S=βFfF+βUfU 11 where fF and fU are the fractions of protein in the folded and unfolded states, respectively, and βF and βU the fluorescence baselines of these two states. To get the fractions of the two states, we have
[formula] where KU(T) is the temperature-dependent unfolding equilibrium constant, which by the van't Hoff approximation is given by
[formula] Where T is the temperature, Tm, the unfolding reaction transition mid-point temperature, and ΔHU the enthalpy of unfolding.

[2] = Ratiometric fluorescence glucose titration of fluorescent conjugates; format: binding; set-up: key to Shape (fluorescence response to glucose) / Change (fluorescence response to glucose): m, monochromatic; d, dichromatic (i.e. spectral shape change); 0, no change; details: tsGBP 13C affinity mutants, Acrylodan or Badan conjugates
Method in brief: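 Single-cysteine glucose-binding protein mutants labelled site-specifically with thiol-reactive environmentally sensitive fluorophores; emission spectra recorded during glucose titration to detect ligand-mediated intensity and spectral-shape changes for ratiometric read-out. Temperature- and ligand-dependent fluorescence landscapes acquired in 1K steps; binding fitted to single-site fractional saturation.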

[3] = ligand-free protein, SYPRO Orange, Roche LightCycler
[4] = read-out: Glucose affinity ^appKd
[5] = read-out: Glucose affinity ^trueKd

Molecule | Thermostability ^apoTm [1, 3] | Change (fluorescence response to glucose) [2] | other results
B1 | >100 °C |  | 
B2 | >100 °C |  | 
B3 |  |  | Thermostability ^apoTm ([1]; determined using fluorescent Acrylodan and/or Badan conjugates): 40^f ° C.
B4 |  | m/d | Kd [2, 4]: 81 mM; Kd [2, 5]: 91 mM
B5 |  | m | Kd [2, 4]: 26 mM; Kd [2, 5]: 39 mM
B6 |  | m | 
B7 |  | 0 | 
B8 | 53 °C |  | 
